Consider six molecules from publication PMC9482650, “Quantitative fragmentomics allow affinity mapping of interactomes” (Nature Communications, 2022).

As a reminder, the pKd is the negative decadic logarithm of the Kd, by convention in mol/L.

Holding throughout (assay): holdup assay
Holding throughout (set-up): key: below the threshold = too weak to quantify, mostly under pKd 3.1 to 4

Experiment [1] deals with T1, LNX2_1, Q8N448.
T1 sequence (Q8N448 228-328, limits assumed, looked up): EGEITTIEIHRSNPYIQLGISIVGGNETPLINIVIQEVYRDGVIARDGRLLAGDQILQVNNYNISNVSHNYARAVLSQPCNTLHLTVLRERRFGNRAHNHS

Experiment [2] concerns the target LNX1_4, Q8TBB1.
In experiment [3] the target is O60759. The following applies: plain residues with an end cap or a label only (N-terminal biotin on a linker: ttds).
For experiment [4], the target named is Q70Z35. The following applies: plain residues with an end cap or a label only (N-terminal biotin on a linker: ttds).
Experiment [5] concerns the target Q9NPB6. The following applies: plain residues with an end cap or a label only (N-terminal biotin on a linker: ttds).
For experiment [6], the target named is Q9P227. Conditions: plain residues with an end cap or a label only (N-terminal biotin on a linker: ttds).
Experiment [7] addresses Q9ULJ8. The following applies: plain residues with an end cap or a label only (N-terminal biotin on a linker: ttds).
Experiment [8] has as its target O00233. The following applies: plain residues with an end cap or a label only (N-terminal biotin on a linker: ttds).
The target of experiment [9] is Q96SB3. The following applies: plain residues with an end cap or a label only (N-terminal biotin on a linker: ttds).
In experiment [10] the target is Q92614. Conditions: plain residues with an end cap or a label only (N-terminal biotin on a linker: ttds).
Experiment [11] has as its target O75970. Conditions: plain residues with an end cap or a label only (N-terminal biotin on a linker: ttds).
In experiment [12] the target is Q9Y3R0. Conditions: plain residues with an end cap or a label only (N-terminal biotin on a linker: ttds).
Experiment [13] has as its target Q13009. The following applies: plain residues with an end cap or a label only (N-terminal biotin on a linker: ttds).
Experiment [14] addresses Q9UDY2. Conditions: plain residues with an end cap or a label only (N-terminal biotin on a linker: ttds).
The target of experiment [15] is Q8IUC4. The following applies: plain residues with an end cap or a label only (N-terminal biotin on a linker: ttds).
Experiment [16] has as its target Q9UMS6. Conditions: plain residues with an end cap or a label only (N-terminal biotin on a linker: ttds).
For experiment [17], the target named is Q13368. The following applies: plain residues with an end cap or a label only (N-terminal biotin on a linker: ttds).
For experiment [18], the target named is Q96HC4. Conditions: plain residues with an end cap or a label only (N-terminal biotin on a linker: ttds).
The target in experiment [19] is Q96FS4. The following applies: plain residues with an end cap or a label only (N-terminal biotin on a linker: ttds).
In experiment [20] the target is Q8TB45. The following applies: plain residues with an end cap or a label only (N-terminal biotin on a linker: ttds).
The target in experiment [21] is Q12923. Conditions: plain residues with an end cap or a label only (N-terminal biotin on a linker: ttds).
For experiment [22], the target named is Q8TEW0. Conditions: plain residues with an end cap or a label only (N-terminal biotin on a linker: ttds).
Experiment [23] concerns the target Q9NR12. The following applies: plain residues with an end cap or a label only (N-terminal biotin on a linker: ttds).
Experiment [24] has as its target Q96JB8. The following applies: plain residues with an end cap or a label only (N-terminal biotin on a linker: ttds).
Experiment [25] deals with O43166. The following applies: plain residues with an end cap or a label only (N-terminal biotin on a linker: ttds).
For experiment [26], the target named is Q96JY6. The following applies: plain residues with an end cap or a label only (N-terminal biotin on a linker: ttds).
Experiment [27] deals with Q5TCQ9. Conditions: plain residues with an end cap or a label only (N-terminal biotin on a linker: ttds).
For experiment [28], the target named is Q9H190. The following applies: plain residues with an end cap or a label only (N-terminal biotin on a linker: ttds).
In experiment [29] the target is O00560. Conditions: plain residues with an end cap or a label only (N-terminal biotin on a linker: ttds).
The target of experiment [30] is O15021. Conditions: plain residues with an end cap or a label only (N-terminal biotin on a linker: ttds).
Experiment [31] addresses Q8TDM6. Conditions: plain residues with an end cap or a label only (N-terminal biotin on a linker: ttds).
Experiment [32] has as its target Q9C0E4. The following applies: plain residues with an end cap or a label only (N-terminal biotin on a linker: ttds).
Experiment [33] concerns the target Q6ZWJ1. Conditions: plain residues with an end cap or a label only (N-terminal biotin on a linker: ttds).
[34] abbreviates: plain residues with an end cap or a label only (N-terminal biotin on a linker: ttds).
The mark [35] stands for this setting: plain residues with an end cap or a label only (N-terminal biotin on a linker: none).

Sequence of LNX1_4, Q8TBB1 (Q8TBB1 631-726): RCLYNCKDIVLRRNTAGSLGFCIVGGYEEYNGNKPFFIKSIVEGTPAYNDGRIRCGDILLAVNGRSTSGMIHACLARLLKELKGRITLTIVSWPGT

Regarding SKPTRRETEV [HPV35-E6, P27228], the pKd result in [1] (setting [34]) is “below the threshold”; in experiment [2] (setting [34]), 3.49.

With QRQARSETLV [HPV59-E6, Q81964], the pKd result in experiment [3], in experiment [4], in [5], in [6], in experiment [7] and in [8] was “below the threshold” each time. For the same molecule, the pKd entry in experiment [9], in experiment [10], in [11], in experiment [12], in experiment [13] and in experiment [14] was “below the threshold” each time. For the same molecule, the pKd entry in experiment [15], in experiment [16], in [17], in [18], in [19] and in experiment [20] was “below the threshold” in each case. Also, the pKd result in experiment [21], in [22], in experiment [23], in [24], in [25] and in experiment [26] was “below the threshold” throughout. Besides, the pKd entry in experiment [27], in [28], in experiment [29], in [30], in [31] and in experiment [32] was “below the threshold” each time. Moreover, in [33], the pKd entry is “below the threshold”.

As to RLQRRRETQV [HPV18-E6, P06463], the pKd result is “below the threshold” in [1] (setting [34]) and 4.03 in experiment [2] (setting [34]).

On to NLNSSRVPDLLV [SARS-CoV2-E, P0DTC4], for which the pKd entry in [1] (setting [35]) and in [2] (setting [35]) was “below the threshold” each time.

As to RLPKIKETTV [FRMPD4, Q14CM0], the pKd result in experiment [3], in [4], in experiment [5], in [6], in experiment [7] and in [8] was “below the threshold” each time. The pKd result in experiment [9], in experiment [10], in experiment [11], in [12], in [13] and in experiment [14] was “below the threshold” throughout. Moreover, the negative-log Kd (pKd) entry in experiment [15], in experiment [16], in experiment [17], in experiment [18], in experiment [19] and in experiment [21] was “below the threshold” in each case. The negative logarithm of the Kd (pKd) entry in experiment [22], in [23], in experiment [24], in experiment [25], in experiment [26] and in experiment [27] was “below the threshold” throughout. The pKd entry in experiment [28], in [29], in experiment [30], in [32] and in experiment [33] was “below the threshold” throughout.

Take RPLPRKVSQL [DOCK4, Q8N1I0]: the pKd entry in experiment [3], in experiment [4], in experiment [5], in experiment [6], in experiment [7] and in experiment [8] was “below the threshold” each time. For the same molecule, the pKd entry in experiment [9], in experiment [10], in [11], in experiment [12], in experiment [13] and in experiment [14] was “below the threshold” throughout. In addition, the pKd result in experiment [15], in experiment [16], in [17], in experiment [18], in [19] and in [21] was “below the threshold” throughout. Moreover, the pKd result in [22], in [23], in experiment [24], in experiment [25], in experiment [26] and in experiment [27] was “below the threshold” throughout. The negative-log Kd (pKd) result in experiment [28], in experiment [29], in experiment [30], in experiment [32] and in experiment [33] was “below the threshold” each time.
